Test results reported in US5993803A, “Method of reducing the severity of host vs graft reaction by down-regulating hsp60 autoimmunity” (Yeda Research and Development Co., Ltd., priority 1996, dated 1999).
Entries after “also recorded” stand apart in the source; their conditions may differ.

Columns and labels:
[1] = system: spleen cells of treated NOD or C57BL mice stimulated with irradiated BALB/c spleen cells; assay: Mixed lymphocyte reaction (MLR) of spleen cells from treated, grafted mice with irradiated BALB/c spleen cells; type: cell-based, mouse
Excerpt: T cells reactive to hsp60 and other hsp molecules have been isolated from cardiac allografts (Moliterno et al., 1995) as well as from other inflammatory lesions (Selmaj et al., 1991; Mor et al., 1992). […] It is theorized that the constitutive hyper-expression of hsp60 in the donor Eα-hsp60 skin amplifies the activation of anti-hsp60 autoimmune T cells at the site and enhance the local immune response by adding pro-inflammatory (TH1-type) cytokines, such as INFγ (Finkelman et al., 1990), to the allograft reaction, thereby inciting and abetting other T cells responsive to the foreign antigens. Conversely, hsp60 autoimmune T cells that have been activated to produce anti-inflammatory cytokines of the TH2-type, such as IL-10, should serve to shut down the effector immune reaction by a form of by-stander suppression (Weiner et al., 1994). To test whether treatment with hsp60 peptides might modify the cytokine response, NOD or C57BL mice were treated with hsp60 or with hsp60 peptide p12. Control mice were untreated or were treated with saline emulsified in IFA. The mice were grafted with BALB/c skin grafts and twenty days later, just at the beginning of graft rejection in the control mice, groups of 5-10 mice were sacrificed and their spleen cells assayed individually in a standard mixed lymphocyte reaction (MLR) with irradiated BALB/c spleen cells as stimulators (Lohse et al., 1990). […] However, the MLR media were also tested for the presence of the TH1 cytokine IFNγ and the TH2 cytokine IL-10.

[2] = system: BALB/c (H-2^d) skin allograft rejection in C57BL/6 (H-2^b) mice; type: in vivo, mouse; details: C57BL/6 recipients; 50 μg in incomplete Freund's adjuvant s.c. 2 weeks before transplantation; Wilcoxon test; FIG. 3A
Method: (§1) FIGS. 3A and 3B show the effects of treating C57BL6 (H-2^b) mice (FIG. 3A) or wild-type NOD (H-2^g7) mice (FIG. 3B) with hsp60 (50 μg in incomplete Freund's adjuvant; Sigma) administered subcutaneously in the back 2 weeks before transplantation of BALB/c (H-2^d) skin (Elias et al., 1994; Elias et al., 1995). […] Control mice were untreated (open squares) or treated with incomplete Freund's adjuvant containing 50 μg of recombinant glutathione transferase (open diamonds).

[3] = system: BALB/c (H-2^d) skin allograft rejection in wild-type NOD (H-2^g7) mice; type: in vivo, mouse; details: wild-type NOD recipients; 50 μg in incomplete Freund's adjuvant s.c. 2 weeks before transplantation; Wilcoxon test; FIG. 3B
Method: as §1
Wild-type NOD (H-2^g7) mice were treated with various hsp60 peptides in incomplete Freund's adjuvant. […] Control mice were untreated (open square) or were treated with incomplete Freund's adjuvant containing 50 μg of peptide p11, a control non-immunogenic hsp60 peptide (closed diamond). […] Each group contained 10-12 mice.
Patches of dorsal skin of one cm^2 were removed from anesthetized recipient mice treated with Nembutal 6 mg/ml, 0.25 ml per mouse and replaced by the donor skin grafts. Histoacryl (B. Braun Meleungen AG, D-34209 Melsungen, Germany) was applied around the grafts and Nobecutan (ASTR, Astra Tech, POB 13, Glos G15, UK) was sprayed over them.

B1: hsp60: Recombinant human 60 kDa heat shock protein, SEQ ID NO:1 (protein, UniProt P10809 27-573, looked up)
60 kDa heat shock protein, …: AKDVKFGADARALMLQGVDLLADAVAVTMGPKGRTVIIEQSWGSPKVTKDGVTVAKSIDLKDKYKNIGAKLVQDVANNTNEEAGDGTTTATVLARSIAKEGFEKISKGANPVEIRRGVMLAVDAVIAELKKQSKPVTTPEEIAQVATISANGDKEIGNIISDAMKKVGRKGVITVKDGKTLNDELEIIEGMKFDRGYISPYFINTSKGQKCEFQDAYVLLSEKKISSIQSIVPALEIANAHRKPLVIIAEDVDGEALSTLVLNRLKVGLQVVAVKAPGFGDNRKNQLKDMAIATGGAVFGEEGLTLNLEDVQPHDLGKVGEVIVTKDDAMLLKGKGDKAQIEKRIQEIIEQLDVTTSEYEKEKLNERLAKLSDGVAVLKVGGTSDVEVNEKKDRVTDALNATRAAVEEGIVLGGGCALLRCIPALDSLTPANEDQKIGIEIIKRTLKIPAMTIAKNAGVEGSLIVEKIMQSSSEVGYDAMAGDFVNMVEKGIIDPTKVVRTALLDAAGVASLLTTAEVVVTEIPKEEKDPGMGAMGGMGGGMGGGMF
[1]; spleen cells taken 20 days after BALB/c skin grafting, hsp60 and p12 treated mice reported together
  T-cell proliferation by thymidine incorporation in MLR, treated vs control groups: no significant differences
[1]; spleen cells taken 20 days after grafting, hsp60 and p12 treated mice pooled, control mice 3.5±0.6, p=0.004
  IL-10 produced in MLR media: 8 ± 1.4 ng/mL
[1]; spleen cells taken 20 days after grafting, hsp60 and p12 treated mice pooled, control mice 9.25±1.7, p=0.002
  IFNγ produced in MLR media: 3.13 ± 1.4 ng/mL
[2]
  survival of BALB/c skin grafts (delay in skin allograft rejection): significantly prolonged survival; also recorded: significant
[3]
  survival of BALB/c skin grafts (delay in skin allograft rejection): delayed rejection; also recorded: significant
